For 1 substance, stoichiometry N results are on record in PMC6126186.

The assay addresses exonuclease domain from the DNA repair protein WRN. In words: SEC-MALS; protein concentrated (10x and 20x) in a mixture of 50 mM phosphate and 1% sucrose; A280 and MALS across the elution peak. Background: SEC sorts molecules by how far they enter the pores of the column.

exonuclease domain from the DNA repair protein WRN, sequence (Q14191 2-1432): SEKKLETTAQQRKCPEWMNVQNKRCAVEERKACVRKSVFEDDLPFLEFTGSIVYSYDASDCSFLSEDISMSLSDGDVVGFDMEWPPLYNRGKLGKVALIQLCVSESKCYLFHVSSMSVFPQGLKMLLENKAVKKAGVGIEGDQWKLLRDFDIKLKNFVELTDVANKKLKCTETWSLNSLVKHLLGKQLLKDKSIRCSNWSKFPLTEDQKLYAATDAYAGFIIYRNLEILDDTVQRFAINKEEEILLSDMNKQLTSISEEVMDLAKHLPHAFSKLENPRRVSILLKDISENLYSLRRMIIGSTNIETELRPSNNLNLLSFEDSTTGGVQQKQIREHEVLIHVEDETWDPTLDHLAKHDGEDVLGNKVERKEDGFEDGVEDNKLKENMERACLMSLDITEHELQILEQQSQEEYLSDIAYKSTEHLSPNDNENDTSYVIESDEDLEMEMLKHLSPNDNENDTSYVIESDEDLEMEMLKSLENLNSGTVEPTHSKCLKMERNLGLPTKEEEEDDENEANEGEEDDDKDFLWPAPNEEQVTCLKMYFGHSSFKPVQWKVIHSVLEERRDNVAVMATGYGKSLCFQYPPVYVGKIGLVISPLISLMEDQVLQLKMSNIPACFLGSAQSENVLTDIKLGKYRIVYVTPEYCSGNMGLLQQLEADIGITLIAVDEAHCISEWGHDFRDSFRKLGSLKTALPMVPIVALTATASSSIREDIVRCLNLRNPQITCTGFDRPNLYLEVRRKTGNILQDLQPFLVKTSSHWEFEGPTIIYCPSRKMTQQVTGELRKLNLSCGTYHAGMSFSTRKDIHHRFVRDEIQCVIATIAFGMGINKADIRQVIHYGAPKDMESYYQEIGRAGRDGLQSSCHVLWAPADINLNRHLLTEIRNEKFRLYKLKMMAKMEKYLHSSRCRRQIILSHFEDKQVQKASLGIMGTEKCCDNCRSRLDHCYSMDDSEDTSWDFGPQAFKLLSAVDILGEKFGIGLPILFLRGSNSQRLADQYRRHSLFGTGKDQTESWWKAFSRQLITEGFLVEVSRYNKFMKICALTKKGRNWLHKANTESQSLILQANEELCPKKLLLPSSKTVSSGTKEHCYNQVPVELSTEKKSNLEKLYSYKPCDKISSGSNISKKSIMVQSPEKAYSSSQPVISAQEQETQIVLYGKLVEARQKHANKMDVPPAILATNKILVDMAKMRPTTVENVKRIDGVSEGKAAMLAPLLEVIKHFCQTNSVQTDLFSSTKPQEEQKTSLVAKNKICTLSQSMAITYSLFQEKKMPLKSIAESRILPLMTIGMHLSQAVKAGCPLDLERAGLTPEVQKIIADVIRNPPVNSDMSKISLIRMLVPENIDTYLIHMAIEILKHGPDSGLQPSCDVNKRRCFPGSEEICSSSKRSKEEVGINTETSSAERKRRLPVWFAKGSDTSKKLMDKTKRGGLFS

By stoichiometry N is commonly meant the number of molecules, sites or subunits per partner or assembly. In the case of “exonuclease domain from the DNA repair protein WRN (domain or fragment)”, the stoichiometry N stood at 2.
